Earlier results on one substance are cited in PMC6526119.

This data set has as its target Hsp90 (Saccharomyces cerevisiae) (UniProt P02829).

Turning to Hsp90 (from UniProt P02829), the Kd is 60 nM.
